Experimental findings from patent US20160244745A1 (published 2016) are described below.

Some targets named below: Lysozyme; Rabbit IgG; Goat IgG.
Holding throughout (test): yeast display titration; KD, yeast

B1: Lysozyme A0.3.2 (designed binder)
chain: KFWATVFSYGNLFEVPVYAETLDEALELAEWQYSGAYEYVTRVRP
For B1, the equilibrium dissociation constant (Kd) (as a rule, the concentration at which binding is half-saturated) with Lysozyme is around 1550 nM.

B2: Rabbit IgG 3.2.3 (designed binder)
chain: KFWATVHSVHGYFEVPVYAETLDEALELAFGQYGNALGYVTRVRP
B2: the dissociation constant Kd with Rabbit IgG is 1.5 nM.

B3: Goat IgG 2.2.1 (designed binder)
chain: KFWATVYDYDADYYFEVPVYAETLDEALELAVWRYYSNHSDYLVTRVRP
Molecule B3 came in with a Kd with Goat IgG of 0.2 nM.
